The nature of data set [1]: 14C assay with IPTG-induced recombinant E. coli cells: 14CO2 captured from [14C]-carboxyl-labeled dicamba. Conditions: for Enzymatic Detection level: dicamba decarboxylation activity of the protein of the given SEQ ID NO, High / Low / No; for Dicamba Decarboxylase Activity: induced recombinant E. coli cells, [14C]-carboxyl-labeled dicamba, 14CO2 capture.
The nature of data set [2]: Saturation mutagenesis of SEQ ID NO:109: dicamba decarboxylation activity of point mutants (carbon dioxide released). The settings on record: decarboxylation activity (carbon dioxide released) of point mutant compared with unmutated backbone protein; backbone SEQ ID NO: 109.

B1: 93 (protein, listed as Mucilaginibacter paludis)
chain: MAKYGKHITINKNMRIVTLEEHISFPEMADQIPKAALGSFGRSEAMQRIAPKLADITGERLKSMDANGISMQVLSVDSSGVNLLSPQQGPAFATQYNDLIANRIAGFEKRFTAFAHLPMTAPFAAADELERAVKEHHFCGAMIRGLTGDQFLDHPQFAPIFERAQKLDVPIYLHPGLPPKGVADIYYSGLPNYSGMAEALACYGWGWHSETALHVLRLLFSGIFDQYPKLKLVIGHMGEMLPMMMARSEKAFKPGNGGANVRTLTDTFRSQVYLTTSGFFTQPPLKIALDTFGIDHVMFSVDYPFSTNEMGIEFLNEIDLPDEEVARIAHGNADKLLNLKA
For the molecule B1, in data set [1], the “Enzymatic Detection level” value was “Low” and the “Dicamba Decarboxylase Activity” value is on record as “Low”. In data set [2], the “Fold Activity” value is reported as 1.6.

B2: 94 (protein, listed as Bacillus thuringiensis)
chain: MANRGDSNMKSLVGVIMGSTSDWETMKYACDILDELNIPYEKKVVSAHRTPDYMFEYAETARERGLKVIIAGAGGAAHLPGMVAAKTNLPVIGVPVQSKALNGLDSLLSIVQMPGGVPVATVAIGKAGSTNAGLLAAQILGSFHDDIHDALELRREAIEKDVREGSELV
Turning to B2, in data set [1], the “Enzymatic Detection level” value is recorded as “No” and the “Dicamba Decarboxylase Activity” value is “No”. In data set [2], the “Fold Activity” value turned out to be 1.5.

B3: 85 (protein, listed as Maritimibacter alkaliphilus)
chain: MAADRKPGLVSVEEGFMIPEVVAELSRIAGGVPSMKSGPIAGPFMDDLLDIGKGRVARMDADGVAVQILALAAPGVQKFDPDTALALSRLTNDRLAEAIAAHPARFGGLAAAPPQAAREGAKELDRAITTLGLNGLIVNSHTNDLYLDDPSFWPLLEAAEALDVPVYLHPREPAAGIEGGLMAMTGFTVGWAYAVETGTHLLRMIAAGVFDRFPRLRIVLGHLGEMIPFMLDRIDNRYPFEMGVTGAKPLPRKPSDYFRDHVTVATSGMNFNAPMRAAIEVLGADKVMFAADYPMERQDEEVAKFAALDLTPDERKRIGEDNARRVFGL
For the molecule B3, in data set [1], the “Enzymatic Detection level” value is given as “Low” and the “Dicamba Decarboxylase Activity” value is “Low”. For the same molecule, the “Fold Activity” value in data set [2] is 1.4.

B4: 90 (protein)
chain: MAATIDRVLYLGNATQRRYTSATVSVPRIFGKVALEEHVGTSIWAKYNLTPPANAVVGVLNRPPTLPNTLDTIARLDDINGRLSSMNHSGIGYVIVSLSSPGIQGVHDTALAIKFSTDINDELYLKYANAYPDKFAFFATVPMQDPVAAASELERAVSLLGAKGAAINGYTDIGPPGNSTTRYLDDPINAPFWSKVAALNVPIYLHPRAPPPSQQLVYNYPNNSLSAYPGLVTGGFAYGAETAVHALRLMLSGLFDTHPNIQIILGHAAEGLPFLIHRSDTQLAAEVPGTNGPYKRPLRYYLRNNFYATLSGVRRLSTTQCTLAEMGEERVLFSVDYPFQSNEDAADWFDGVEGMSVETKRKVARGNARRLFNLTVDLDERQIDGDFM
modifications: Pyrenophora tritici-repentis
B4: in data set [1], the “Enzymatic Detection level” value is “Low” and the “Dicamba Decarboxylase Activity” value is reported as “Low”. Moreover, the “Fold Activity” value in data set [2] is given as 1.7.

B5: 82 (protein, listed as Rhodopseudomonas palustris)
chain: MAQNETPVIAIEEHYWDPEMVARFPAGENASPFSTLLTELGDVRLRAMDEAGIDVQVLSHGAPAAQKLPPDVAPELTRRVNDRLAEACARFPNRFAAFAALPTPAPEAAARELERCVRDLGFKGAMIHGLTNGLFIDDKRFWPIFEVAEKLDVPIYLHPSVPHADVTRYYYDDYAREFPTVIRPAWGFTVETATQAIRLILSRALESYPRLQIILGHLGETLPFLLWRINQALARPGQTPLDFRKQFCDHFHVTTSGFFSTPALICTMLELGIDRIMFAVDYPYVVNRDGTDWVQQLQISPDDKRKLVGGNARRLLKL
For B5, in data set [1], the “Enzymatic Detection level” value was “Low” and the “Dicamba Decarboxylase Activity” value was “Low”. In data set [2], the “Fold Activity” value is listed as 0.9.

B6: 97 (protein, listed as Sphingobium sp.)
chain: MAMMIIDCHGHYTVLPKAHDEWREQQKAAFKAGQPAPPYPEISDDEIRETIEANQLRLIKERGADMTIFSPRASAMAPHVGDQSVAVPWAQACNNLIARVVDLFPETFAGVCMLPQSPEADMTSSIAELERCVNELGFIGCNLNPDPGGGHFKHPPLTDRFWYPFYEKMVELDVPAMIHVSGSCNPAMHATGAYYLAADTIAFMQLLQGNLFADFPTLRFIIPHGGGAVPYHWGRFRGLADMLKQPSLDTLLMNNVFFDTCVYHQPGINLLADVIDNKNILFGSEMVGAVRGIDPTTGHYFDDTKRYIDALDISDQERHAIFEGNTRRVFPRLDAKLKARGL
For B6, in data set [1], the “Enzymatic Detection level” value is “No” and the “Dicamba Decarboxylase Activity” value is reported as “No”. Moreover, the “Fold Activity” value in data set [2] amounted to 2.9.

B7: 6 (protein)
chain: MAEILSPEESIYYSKLSNDILAEGIKKNPTRFRGFAALPTPDPIQAAMELERCIKLGGFVGAIINGHINGHYLDEIQFDPILEAADALDVPLYIHPAVPPKAIIDTYYKMNDTYAQTVMVSGGWGWHIETGVHVLRLISSGVFDRHPNLKIVIGHLGEGLPFFMHRLNNAIGGNLKKSYSTYLKENIYYTISGFNDPDLFQFVLKKVGENNIMFSSDYPFNFPKREVELFNELNISEEVREKISFKNAERILKI
modifications: Treponema brennaborense
For the molecule B7, in data set [1], the “Enzymatic Detection level” value is recorded as “No” and the “Dicamba Decarboxylase Activity” value is on record as “No”. Moreover, in data set [2], the “Fold Activity” value is reported as 0.9.

B8: 98 (protein)
chain: MAIIDCHGHYTTAPAAHDAFRKAQIAHHDDPQQPAPQYPHISDDALRESIEQHQLRLLRERGADMTIFSPRASTMAHHIGNEAVSQVWTQRCNDLIARVVQLYPHTFIGVCQLPQSPGVPISHSIAELERCVNELGFVGCNLNPDPSGGHWNGVPLTDRAWYPFFEKMVELDVPAMVHVSGSCNANFHATGAHYLNADTTAFMQFLEGDLFRDFPSLRFIIPHGGGAVPYHWGRFRGLADMLGKPPLATHVMRNVFFDTCVYHQPGIDLLFEVIDIDNILFGSEMVGAVRGIDPQTGHYFDDTKRYIDALTISDADKRKVFEGNARRVYPRLDAQLRARGL
modifications: Xanthomonas campestris pv.
B8: in data set [1], the “Enzymatic Detection level” value is given as “No” and the “Dicamba Decarboxylase Activity” value is given as “No”. The “Fold Activity” value in data set [2] worked out at 2.3.

B9: 91 (protein, listed as Botryotinia fuckeliana)
chain: MASFVCNFGKAALATLLLTPSISAADYTPQETVLNSGRPTFYDASTSIPGKIALEEHVGNDLLNGLYTVPYYPNTNEPQYSDSVYIADVGEKMLDIPSRIANMDAANISISVLTFGGPGIQGVFNATYATYAAGYVNDYLYKNYKNNANYTGRFEFWCSNALQEPSKAATELERCVKELGGVGSFVGGYTNNGGINGTANDIVYLDDPSMEPFLEKVVELDVPIYLHPRMPAPSQLLSVKGYEFLGSSPWGFSSETGAHALRLMVSGTLDKYPTLKIVLGHCGEGLPFFLPRIDQRLRHFKKELFNNTLTMEEYWLRNFYVTTAGVQDAGTLVDTIKRTGEDRVMFSVDYPFEDTVEIAGWFDRLEMNTLTKTKLAYENAKALLKLTCYVDAEKRPRIFNKHHVDDIIKHTHSPCIWTLFH
On to B9, for which, in data set [1], the “Enzymatic Detection level” value is on record as “Low” and the “Dicamba Decarboxylase Activity” value is listed as “Low”. Moreover, the “Fold Activity” value in data set [2] turned out to be 1.6.

B10: 86 (protein, listed as Sphingopyxis alaskensis)
chain: MALGASVASREASAQMAKAPMRKIATEEAFATPELAKAWLEIARSEPNSSLDIPTGILSIFDNPRPGSNQDRFRRQLLDVDAERIRDMDEAGVDMQLLSVTIPGVQIFEPARAGELAVTTNDHLAAAIARRPTRFAGLACFAPHDPVQATREMERAVNALGLKGFIVNSHTQDLYLDDPRFAPVLEAAQSLDCPIYLHPRAPSNGMAAPFRDYSMGGSIWGFGVEAGTHAVRMILSGVFDRYPRLRIVLGHMGEALPFWMWRLDHMAARRAKDGRMKPLSLAPSEYFKRNFAVTTSGFESPDVLDLVIKVAGIENIMWAIDYPYESSRDAVTFIEGADLTASQRASIFHRNAVRHFRLS
Take B10: in data set [1], the “Enzymatic Detection level” value is reported as “Low” and the “Dicamba Decarboxylase Activity” value was “Low”. Moreover, the “Fold Activity” value in data set [2] was determined as 1.4.

B11: 96 (protein)
chain: MAPLIVDVHTHVYPPAYMQMLRSRKTVPYVHDPSNNRDPRLIILSSDDDASIPLDQRGRPVDSSYWDINVKLSFMRQHGINCSVISLANPWLDFVEPAEAQMWAERINDDLEKTCATVNKAADPGNTLTLDQKETLFAFGALPLSAPSSESVVAEIKRLKTLEHLRGVIMGTSGLGKGLDDARLDPVWEALQETDMLMFLHPHYGLPEEAYGGPETTGRYGHVLPLALGFPLETTIAVTRMLLSGVFDRFPRLKILLAHSGGTLPFLAGRIESCILHERKFISGGGDVQGPQRSVWDVLKTNIYLDAVVYGKPGLEAAMTASGSDRLLFGTDHPFFPPLDSKDNSWPSVTTNYQAIHATFDTNSKTVADVLGGNAARILNLK
modifications: Aspergillus nidulans
On to B11, for which, in data set [1], the “Enzymatic Detection level” value is listed as “No” and the “Dicamba Decarboxylase Activity” value was “No”. Further, in data set [2], the “Fold Activity” value is 1.1.

B12: 84 (protein, listed as Mycobacterium rhodesiae)
chain: MASLIALEEHYAWDPASEGNVVATWLRANNGVAYDRLYDRGPLRIEQMDAAGIDFQILSLFDPGVQDEVDAVRAVDLARRANDDLAESVRANPSRFGGFATLATQQPDAAVAEFDRAVTELGLVGGLINGHCQGRYLDDPAYEALFSRAEALGAPIYLHPTTPHPAVMDAWFAPYVGDGLHLASWGFAAETGTHVLRLIYSGLFDKFPRLQMIIGHLGEMLPFAAYRIDRYYGLGGGGTGHTLQHLPSDYLRNNFHVTTSGNFCSPALDCTLDVMGADRVMFSVDYPMDDNQTGADFLASYPMDDTNRRKVASENALRLFGDRIPAALRN
B12: in data set [1], the “Enzymatic Detection level” value is on record as “Low” and the “Dicamba Decarboxylase Activity” value is listed as “Low”. The “Fold Activity” value in data set [2] is reported as 1.

B13: 83 (protein, listed as Mycobacterium rhodesiae)
chain: MALIALEEHYAWSPVSAGNVVGSWLETHNVTAYQRLYDRGPLRLEQMDAAGIDFQILSLFDPGVQDDDDTARAVENARRANDDLAETVRAAPDRFGGFATLAPQDPDAAAAELERAVGELGLVGGLINGHTHGRYLDDPAYLGLFECAQRLGVPIYLHPTTPHPAVMDAWFAPYVKDGLHLASWGFAAETGTHALRLIYSGLFDTFPRLQMILGHLGEMLPYAAYRIDRYYGLGGGDDGGRLARLPSEYLRDNFHVTTSGNFNPVAFACALDVMGPDRLMFSVDYPMDDNVTGAEFLRNLEVDDDVRRKVAGENALQLFGDKIPRR
In the case of B13, in data set [1], the “Enzymatic Detection level” value is “Low” and the “Dicamba Decarboxylase Activity” value is given as “Low”. Further, the “Fold Activity” value in data set [2] was determined as 1.9.

Values taken from patent publication US20160053277A1, “Compositions Having Dicamba Decarboxylase Activity and Methods of Use” (PIONEER HI-BRED INTERNATIONAL, INC., priority 2013, published 2016).
